The results in this text go back to patent US20140018304A1 (INDUSTRY ACADEMIC COOPERATION FOUNDATION YONSEI UNIVERSITY, published 2014).

Experiment [1] has as its target T1, Bacterial Alkaline Phasphatase (BAP) (UniProt P00634 22-471 = phosphatase).
T1 construct: Control
The experiment is described as follows: co-expression in HeLa cells, precipitation with Ni-NTA resin, western blot. Background: A western blot detects proteins with antibodies after separation by electrophoresis.
Experimental: Appropriate plasmid combination was transfected into HeLa cells using Lipofectamine Plus (Invitrogen). At 48 hours post-transfection, transfected cells were dissolved in the cell lysis buffer (10 mM Tris, pH 7.5, mM NaCl, 2 mM EDTA, 0.5% Triton X-100, 1 mM PMSF, and protease inhibitor cocktail (Roche Diagnostics, Mannheim, Germany)) to obtain total proteins. For secretary protein preparation, the culture medium was exchanged with a serum-free culture medium at 24 hours post transfection of the plasmid, followed by culturing again for 24 hours, and then the culture medium was collected. The collected culture medium was centrifuged to discard cell components. For immunoprecipitation of His-tagged proteins, 300 μg of total proteins and the culture medium were reacted with the Ni-NTA resin at 4 for 5 hours. After 5 hours, the reacted material was washed five times with a washing buffer (50 mM Tris, pH 7.5, 150 mM NaCl, and 0.5% Triton X-100), and then proteins attached to the resin were dissolved in the SDS sample buffer, followed by SDS-PAGE and then western blotting.

Experiment [2] addresses T2, GLRX3C, GLRX3 mutant composed of only the C-terminal domains, expressed from 3xFLAG-CMV14/H14C (Homo sapiens, UniProt O76003 134-335).
T2 construct: Deletion construct; not shown: C-terminal 3xFLAG tag of the 3xFLAG-CMV14 vector and the BamHI-site linker to it
T2 sequence: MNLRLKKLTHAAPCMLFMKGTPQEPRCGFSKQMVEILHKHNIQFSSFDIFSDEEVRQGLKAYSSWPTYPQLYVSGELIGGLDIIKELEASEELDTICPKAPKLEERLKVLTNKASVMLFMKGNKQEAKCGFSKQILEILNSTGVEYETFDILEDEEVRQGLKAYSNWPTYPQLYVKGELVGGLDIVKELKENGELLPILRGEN
The experiment is described as above.

T1 sequence (P00634 22-471): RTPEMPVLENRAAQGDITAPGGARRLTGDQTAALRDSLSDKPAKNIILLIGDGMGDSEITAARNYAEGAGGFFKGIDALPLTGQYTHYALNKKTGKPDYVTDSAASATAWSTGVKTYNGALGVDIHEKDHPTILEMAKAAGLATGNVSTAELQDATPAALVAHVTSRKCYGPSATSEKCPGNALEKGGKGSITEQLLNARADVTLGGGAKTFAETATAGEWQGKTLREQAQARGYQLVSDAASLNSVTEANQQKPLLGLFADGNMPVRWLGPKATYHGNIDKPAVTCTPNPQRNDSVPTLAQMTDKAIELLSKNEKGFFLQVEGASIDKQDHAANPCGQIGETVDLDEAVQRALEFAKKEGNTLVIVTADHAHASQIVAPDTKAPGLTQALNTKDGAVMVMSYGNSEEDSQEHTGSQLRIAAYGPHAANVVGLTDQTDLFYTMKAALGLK

B1: PAUF-Myc/His from pcDNA3.1(+)-PAUF-Myc/His (other, UniProt Q96DA0 17-172, looked up)
chain: GKMYGPGGGKYFSTTEDYDHEITGLRVSVGLLLVKSVQVKLGDSWDVKLGALGGNTQEVTLQPGEYITKVFVAFQAFLRGMVMYTSKDRYFYFGKLDGQISSAYPSQEGQVLVGIYGQYQLLGIKSIGFEWNYPLEEPTTEPPVNLTYSANSPVGR
notes: In vivo experiment: expressed in HeLa cells, total proteins and culture medium reacted with Ni-NTA resin; also called PAUF-His; His-PAUF; not shown: Myc/His tag of the pcDNA3.1(+)-Myc/His vector (Invitrogen)
As to B1, the binding result in experiment [1] and in experiment [2] was “no binding” in each case.
